T1: recombinant soluble murine C4.4a (mouse, UniProt Q91YK8 33-343, limits assumed)
T1 construct: also called mouse C4.4a; mC4.4a
T1 sequence (looked up): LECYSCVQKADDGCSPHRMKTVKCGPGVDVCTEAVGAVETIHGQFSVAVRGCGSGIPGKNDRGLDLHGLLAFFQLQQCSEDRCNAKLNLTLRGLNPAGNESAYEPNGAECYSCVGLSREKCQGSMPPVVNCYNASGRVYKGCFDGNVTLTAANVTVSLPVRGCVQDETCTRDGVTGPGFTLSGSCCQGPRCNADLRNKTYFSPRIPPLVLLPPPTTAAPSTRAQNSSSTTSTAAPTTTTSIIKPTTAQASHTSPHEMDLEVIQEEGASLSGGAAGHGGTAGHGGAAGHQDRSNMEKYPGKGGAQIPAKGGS

T2: recombinant soluble human C4.4a (human, UniProt O95274 31-308)
T2 construct: recombinant, soluble, purified protein; also called hC4.4a; full length C4.4a
T2 sequence: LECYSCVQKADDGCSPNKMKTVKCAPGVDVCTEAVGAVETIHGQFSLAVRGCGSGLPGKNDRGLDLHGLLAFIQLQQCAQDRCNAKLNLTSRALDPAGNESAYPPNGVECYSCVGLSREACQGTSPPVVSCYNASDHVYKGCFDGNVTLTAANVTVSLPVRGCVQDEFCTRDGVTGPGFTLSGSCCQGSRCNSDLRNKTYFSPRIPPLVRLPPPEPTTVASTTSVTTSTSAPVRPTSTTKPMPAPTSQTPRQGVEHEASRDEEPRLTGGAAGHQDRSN


Assays:
[1] = molecular target: T1, recombinant soluble murine C4.4a; assay: direct ELISA, Fab supernatant on coated mouse C4.4a, signal normalized to Fab quantity
Description: (§1) Cultures were diluted in 10% Smart Block in PBST and bound to the MTP plates for 1 h at 20° C. After washing with PBST, captured antibodies were incubated with a HRP-coupled anti-lambda antibody (Sigma, A5175) and detected by incubating the plate with 10 μM amplex red substrate (Invitrogen, A12222) for 30 minutes at 20° C. in the dark followed by fluorescence measurement. Determined quantification signals were checked to be in the dynamic range of an calibration series built up with concentrated parental Fab (M31-B01 or M20-D02-S-A) expression culture supernatant allowing a relative quantification of each individual Fab expression sample.
(§2) To determine the activity of the mutated Fab variants on recombinant soluble human or mouse C4.4a a direct ELISA assay format was used. Briefly, MTP plates (Nunc maxisorp black, 460518) were coated with 2 μg/ml either human or mouse C4.4a diluted in coating buffer (Candor Bioscience GmbH, 121125) and incubated for 15 h at 4° C. After washing 3 times with PBST, plates were blocked with 100% Smart Block (Candor Bioscience GmbH, 113500) for 1 h at 20° C. and the washing steps were repeated. For binding of the Fab antibody fragments 20 μl of culturing supernatants were added to the plates for 1 h at 20° C. followed by washing. In some cases the washing stringency was increased by an additional incubation step with 10% Smart Block in PBST for 90 min followed by washing 3 times with PBST (“process B” in Table 10b). Bound parental Fabs and variants were then detected by a HA-epitope tag specific antibody HRP conjugate (Bethyl, A190-108P). 10 μM amplex red substrate (Invitrogen, A12222) was added to the plates and the fluorescence signal was detected using a common fluorescence reader, e.g. Tecan Ultra. Quantity normalized affinity signals were calculated as ratios of background corrected affinity and quantification signals in the respective ELISA: (Signalaffinity−Backgroundaffinity)/(Signalquantity−Backgroundquantity). The resulting values correlate mainly with the affinity in a positive manner, whereas not normalized values correlate additionally with the concentration of the binding Fab in the sample.

[2] = molecular target: T2, recombinant soluble human C4.4a; assay: direct ELISA, Fab supernatant on coated human C4.4a, signal normalized to Fab quantity
Description: as §1, §2

Row | normalized affinity signal (average) [1] | normalized affinity signal (median, process A) [1] | normalized affinity signal (average) [2] | normalized affinity signal (median, process A) [2] | Binder
1 | 0.01 | 0.04 | 0.04 | 0.15 | wild-type Fab M20-D02 S-A (Fab, V domains shown, Fab with 3×HA-tag and hexa-histidine tag at the C-terminus of the heavy chain, E. coli culture supernatant; also called M20-D02 S-A (parental Fab)) VH: EVQLLESGGGLVQPGGSLRLSCAASGFTFSDYQMTWIRQTPGKGLEWVSGVSWNGARTHYADSVKGRFTISRDNSKNTLYLQMNSLRAEDTAVYYCAKGDYLVYSAYYFDSWGQGTLVTVTS VL: not shown
2 | 0.52 |  | 1.32 |  | M20-D02 S-A Fab LC V97A (Fab, V domains shown, Fab with 3×HA-tag and hexa-histidine tag at the C-terminus of the heavy chain, culture supernatant) VH: EVQLLESGGGLVQPGGSLRLSCAASGFTFSDYQMTWIRQTPGKGLEWVSGVSWNGARTHYADSVKGRFTISRDNSKNTLYLQMNSLRAEDTAVYYCAKGDYLVYSAYYFDSWGQGTLVTVTS VL: not shown
3 |  | 0.16 |  | 0.52 | M20-D02 S-A Fab HC V51I (Fab, V domains shown, Fab with 3×HA-tag and hexa-histidine tag at the C-terminus of the heavy chain, culture supernatant) VH: EVQLLESGGGLVQPGGSLRLSCAASGFTFSDYQMTWIRQTPGKGLEWVSGISWNGARTHYADSVKGRFTISRDNSKNTLYLQMNSLRAEDTAVYYCAKGDYLVYSAYYFDSWGQGTLVTVTS VL: not shown
4 | 0.01 |  | 0.87 |  | M20-D02 S-A Fab HC A100bR (Fab, V domains shown, Fab with 3×HA-tag and hexa-histidine tag at the C-terminus of the heavy chain, culture supernatant) VH: EVQLLESGGGLVQPGGSLRLSCAASGFTFSDYQMTWIRQTPGKGLEWVSGVSWNGARTHYADSVKGRFTISRDNSKNTLYLQMNSLRAEDTAVYYCAKGDYLVYSRYYFDSWGQGTLVTVTS VL: not shown
5 | 0.29 |  | 1.41 |  | M20-D02 S-A Fab LC A90Q (Fab, V domains shown, Fab with 3×HA-tag and hexa-histidine tag at the C-terminus of the heavy chain, culture supernatant) VH: EVQLLESGGGLVQPGGSLRLSCAASGFTFSDYQMTWIRQTPGKGLEWVSGVSWNGARTHYADSVKGRFTISRDNSKNTLYLQMNSLRAEDTAVYYCAKGDYLVYSAYYFDSWGQGTLVTVTS VL: not shown
6 | 0.02 |  | 0.34 |  | M20-D02 S-A Fab HC A100bS (Fab, V domains shown, Fab with 3×HA-tag and hexa-histidine tag at the C-terminus of the heavy chain, culture supernatant) VH: EVQLLESGGGLVQPGGSLRLSCAASGFTFSDYQMTWIRQTPGKGLEWVSGVSWNGARTHYADSVKGRFTISRDNSKNTLYLQMNSLRAEDTAVYYCAKGDYLVYSSYYFDSWGQGTLVTVTS VL: not shown
7 | 0.3 |  | 1.21 |  | M20-D02 S-A Fab LC V97G (Fab, V domains shown, Fab with 3×HA-tag and hexa-histidine tag at the C-terminus of the heavy chain, culture supernatant) VH: EVQLLESGGGLVQPGGSLRLSCAASGFTFSDYQMTWIRQTPGKGLEWVSGVSWNGARTHYADSVKGRFTISRDNSKNTLYLQMNSLRAEDTAVYYCAKGDYLVYSAYYFDSWGQGTLVTVTS VL: not shown
8 |  | 0.04 |  | 0.15 | M20-D02 S-A Fab HC A55G (Fab, V domains shown, Fab with 3×HA-tag and hexa-histidine tag at the C-terminus of the heavy chain, culture supernatant) VH: EVQLLESGGGLVQPGGSLRLSCAASGFTFSDYQMTWIRQTPGKGLEWVSGVSWNGGRTHYADSVKGRFTISRDNSKNTLYLQMNSLRAEDTAVYYCAKGDYLVYSAYYFDSWGQGTLVTVTS VL: not shown
9 | 0.03 |  | 0.61 |  | M20-D02 S-A Fab HC D101R (Fab, V domains shown, Fab with 3×HA-tag and hexa-histidine tag at the C-terminus of the heavy chain, culture supernatant) VH: EVQLLESGGGLVQPGGSLRLSCAASGFTFSDYQMTWIRQTPGKGLEWVSGVSWNGARTHYADSVKGRFTISRDNSKNTLYLQMNSLRAEDTAVYYCAKGDYLVYSAYYFRSWGQGTLVTVTS VL: not shown
10 | 0.05 |  | 0.31 |  | M20-D02 S-A Fab HC D101E (Fab, V domains shown, Fab with 3×HA-tag and hexa-histidine tag at the C-terminus of the heavy chain, culture supernatant) VH: EVQLLESGGGLVQPGGSLRLSCAASGFTFSDYQMTWIRQTPGKGLEWVSGVSWNGARTHYADSVKGRFTISRDNSKNTLYLQMNSLRAEDTAVYYCAKGDYLVYSAYYFESWGQGTLVTVTS VL: not shown
11 | 0.02 |  | 0.43 |  | M20-D02 S-A Fab HC S100aR (Fab, V domains shown, Fab with 3×HA-tag and hexa-histidine tag at the C-terminus of the heavy chain, culture supernatant) VH: EVQLLESGGGLVQPGGSLRLSCAASGFTFSDYQMTWIRQTPGKGLEWVSGVSWNGARTHYADSVKGRFTISRDNSKNTLYLQMNSLRAEDTAVYYCAKGDYLVYRAYYFDSWGQGTLVTVTS VL: not shown
12 | 0.1 |  | 0.64 |  | M20-D02 S-A Fab LC D92G (Fab, V domains shown, Fab with 3×HA-tag and hexa-histidine tag at the C-terminus of the heavy chain, culture supernatant) VH: EVQLLESGGGLVQPGGSLRLSCAASGFTFSDYQMTWIRQTPGKGLEWVSGVSWNGARTHYADSVKGRFTISRDNSKNTLYLQMNSLRAEDTAVYYCAKGDYLVYSAYYFDSWGQGTLVTVTS VL: not shown
13 | 0.17 |  | 0.94 |  | M20-D02 S-A Fab LC A90R (Fab, V domains shown, Fab with 3×HA-tag and hexa-histidine tag at the C-terminus of the heavy chain, culture supernatant) VH: EVQLLESGGGLVQPGGSLRLSCAASGFTFSDYQMTWIRQTPGKGLEWVSGVSWNGARTHYADSVKGRFTISRDNSKNTLYLQMNSLRAEDTAVYYCAKGDYLVYSAYYFDSWGQGTLVTVTS VL: not shown
14 | 0.06 |  | 0.45 |  | M20-D02 S-A Fab HC S100aK (Fab, V domains shown, Fab with 3×HA-tag and hexa-histidine tag at the C-terminus of the heavy chain, culture supernatant) VH: EVQLLESGGGLVQPGGSLRLSCAASGFTFSDYQMTWIRQTPGKGLEWVSGVSWNGARTHYADSVKGRFTISRDNSKNTLYLQMNSLRAEDTAVYYCAKGDYLVYKAYYFDSWGQGTLVTVTS VL: not shown
15 |  | 0.06 |  | 0.21 | M20-D02 S-A Fab HC R56S (Fab, V domains shown, Fab with 3×HA-tag and hexa-histidine tag at the C-terminus of the heavy chain, culture supernatant) VH: EVQLLESGGGLVQPGGSLRLSCAASGFTFSDYQMTWIRQTPGKGLEWVSGVSWNGASTHYADSVKGRFTISRDNSKNTLYLQMNSLRAEDTAVYYCAKGDYLVYSAYYFDSWGQGTLVTVTS VL: not shown
16 | 0.21 |  | 1.65 |  | M20-D02 S-A Fab HC D101K (Fab, V domains shown, Fab with 3×HA-tag and hexa-histidine tag at the C-terminus of the heavy chain, culture supernatant) VH: EVQLLESGGGLVQPGGSLRLSCAASGFTFSDYQMTWIRQTPGKGLEWVSGVSWNGARTHYADSVKGRFTISRDNSKNTLYLQMNSLRAEDTAVYYCAKGDYLVYSAYYFKSWGQGTLVTVTS VL: not shown
17 | 0.4 |  | 3.17 |  | M31-B01 Fab LC W91E (Fab, V domains shown, Fab with 3×HA-tag and hexa-histidine tag at the C-terminus of the heavy chain, culture supernatant) VH: EVQLLESGGGLVQPGGSLRLSCAASGFTFSNAWMSWVRQAPGKGLEWVSYISSSGSTIYYADSVKGRFTISRDNSKNTLYLQMNSLRAEDTAVYYCAREGLWAFDYWGQGTLVTVTS VL: QSVLTQPPSASGTPGQRVTISCTGSSSNIGAGYVVHWYQQLPGTAPKLLIYDNNKRPSGVPDRFSGSKSGTSASLAISGLRSEDEADYYCAAEDDRLNGPVFGGGTKLTVLG
18 | 2.79 |  | 4.97 |  | M31-B01 Fab LC W91Y (Fab, V domains shown, Fab with 3×HA-tag and hexa-histidine tag at the C-terminus of the heavy chain, culture supernatant) VH: EVQLLESGGGLVQPGGSLRLSCAASGFTFSNAWMSWVRQAPGKGLEWVSYISSSGSTIYYADSVKGRFTISRDNSKNTLYLQMNSLRAEDTAVYYCAREGLWAFDYWGQGTLVTVTS VL: QSVLTQPPSASGTPGQRVTISCTGSSSNIGAGYVVHWYQQLPGTAPKLLIYDNNKRPSGVPDRFSGSKSGTSASLAISGLRSEDEADYYCAAYDDRLNGPVFGGGTKLTVLG
19 | 2.53 |  | 4.3 |  | M31-B01 Fab LC W91F (Fab, V domains shown, Fab with 3×HA-tag and hexa-histidine tag at the C-terminus of the heavy chain, culture supernatant) VH: EVQLLESGGGLVQPGGSLRLSCAASGFTFSNAWMSWVRQAPGKGLEWVSYISSSGSTIYYADSVKGRFTISRDNSKNTLYLQMNSLRAEDTAVYYCAREGLWAFDYWGQGTLVTVTS VL: QSVLTQPPSASGTPGQRVTISCTGSSSNIGAGYVVHWYQQLPGTAPKLLIYDNNKRPSGVPDRFSGSKSGTSASLAISGLRSEDEADYYCAAFDDRLNGPVFGGGTKLTVLG

Reference: patent US20120321619A1 (Bayer, published 2012)
